This note sets out measurements from patent US20250101096A1 (SERA PROGNOSTICS, published 2025).

The target of assay [1] is T1, human insulin-like growth factor binding protein 4 (IBP4) (human, UniProt P22692 22-258).
T1 construct: also called IBP4 protein; IGFBP4
T1 sequence: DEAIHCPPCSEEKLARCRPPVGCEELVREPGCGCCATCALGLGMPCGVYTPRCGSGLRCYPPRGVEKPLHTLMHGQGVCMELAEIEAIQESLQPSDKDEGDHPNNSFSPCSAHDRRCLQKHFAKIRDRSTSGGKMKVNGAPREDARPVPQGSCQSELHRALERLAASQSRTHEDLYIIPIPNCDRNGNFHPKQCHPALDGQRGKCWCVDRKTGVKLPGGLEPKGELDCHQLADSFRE
The assay can be described thus: AC-MS, mAb on M-PVA beads, pooled pregnant serum. The text has this:
(§1) Anti-IBP4 antibody evaluation and selection. A total of 8 hybridoma clones (1H9.B6, 5C11.A7, 7G11.H4, 3D4.E9, 1G3.A3, 8G4.G11, 5F10.B2, and 3D8.A11) were produced according to the “additional production of anti-IBP4 antibodies” methods disclosed in Example 1 and screened by AC-MS, shown in Table 10 below. Monoclonal antibodies from these clones purified by protein-G affinity chromatography were covalently coupled to M-PVA magnetic beads and used in AC-MS experiments using pooled pregnant serum. The 5B3.G9 anti-IBP4 antibody clone was included in this analysis for comparison to the performance of the additional IBP4 antibodies, as shown and italicized in Table 10 below. Table 10 includes a summary of the additional antibodies Response Ratios and shared epitope binding results as determined by the competitive binding assays of Example 3.

The target of assay [2] is T1, human insulin-like growth factor …. The assay can be described thus: AC-MS, 10 ul QC2 serum, M-PVA beads coupled at 25 ug/ml mAb. From the text: (§2) AC-MS performance at reduced IBP4 antibody coupling density. IBP4 antibodies were coupled to M-PVA beads at concentrations of […] in the coupling reaction to test the performance of M-PVA beads with reduced density of coupled antibody. Comparison of the IBP4 response ratios obtained in AC-MS experiments with M-PVA beads with a low density of coupled mAb should reveal differences in the apparent affinity of the antibodies to IBP4 protein.
(§3) M-PVA beads coupled to IBP4 mAbs 1H9.B6, 5C11.A7, 7G11.H4 or 5B3.G9 at each concentration were used in AC-MS experiments with 10 μl of QC2 serum.

Assay [3] shares this target. The assay can be described thus: AC-MS, 10 ul QC2 serum, M-PVA beads coupled at 400 ug/ml mAb.
Text: as §2, §3

For assay [4] the target is unchanged. Put plainly: AC-MS, mAb on M-PVA beads, QC2 serum, round 3 (beads reused).
Assay [5] has the same target. The assay can be described thus: AC-MS, mAb on M-PVA beads, QC2 serum, round 2 (beads reused).
For assay [6] the target is unchanged. The assay can be described thus: SPR, format and IBP4 form not stated. For orientation: SPR reads the build-up and loss of mass on a sensor chip optically.
The target is the same in assay [7]. Put plainly: AC-MS, 10 ul QC2 serum, M-PVA beads at reduced mAb coupling density.
Text: as §2, §3

Assay [8] shares this target. The assay can be described thus: AC-MS, mAb on M-PVA beads, QC2 serum, round 1.
Assay [9] shares this target. The assay can be described thus: AC-MS, 10 ul QC2 serum, M-PVA beads coupled at 100 ug/ml mAb.
Text: as §2, §3

Assay [10] has the same target. Put plainly: AC-MS, mAb on M-PVA beads, pooled pregnant serum, peptide ….
Text: as §1

A further assay deals with C4 Pos Control #4. The assay can be described thus: ECLIA, single peptide competes with SHBG for the antibody.
The target in assay [11] is T2, anti-SHBG antibody clone variant 4G10.F8.
T2 construct: Mouse monoclonal; variant form expressed from a standard backbone in CHO cells; also called SHBG (4G10.F8) Anti SHBG v1; SHBG #6
T2 sequence (heavy, as listed by the source, chain 1 of 2): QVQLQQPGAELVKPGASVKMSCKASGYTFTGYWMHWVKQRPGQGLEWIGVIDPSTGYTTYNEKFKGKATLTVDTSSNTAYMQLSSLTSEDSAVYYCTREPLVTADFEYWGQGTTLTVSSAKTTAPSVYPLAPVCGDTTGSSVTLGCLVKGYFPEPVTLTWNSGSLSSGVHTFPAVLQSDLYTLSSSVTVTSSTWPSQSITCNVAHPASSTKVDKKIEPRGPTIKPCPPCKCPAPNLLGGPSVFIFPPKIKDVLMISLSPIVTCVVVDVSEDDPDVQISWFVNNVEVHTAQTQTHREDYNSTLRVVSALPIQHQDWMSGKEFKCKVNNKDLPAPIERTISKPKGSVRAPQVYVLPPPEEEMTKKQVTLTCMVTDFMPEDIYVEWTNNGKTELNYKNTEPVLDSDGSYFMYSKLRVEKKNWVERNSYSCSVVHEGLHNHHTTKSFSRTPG
T2 sequence (light, as listed by the source, chain 2 of 2): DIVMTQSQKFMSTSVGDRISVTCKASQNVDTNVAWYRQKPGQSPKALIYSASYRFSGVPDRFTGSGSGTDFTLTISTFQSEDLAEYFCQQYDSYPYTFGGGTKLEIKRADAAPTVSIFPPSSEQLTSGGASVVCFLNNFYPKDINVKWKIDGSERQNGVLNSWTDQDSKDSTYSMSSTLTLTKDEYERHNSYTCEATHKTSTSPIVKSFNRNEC
The description is as above.

The target in assay [12] is T3, anti-SHBG antibody clone variant 13C9.E5.
T3 construct: Mouse monoclonal; variant form; also called SHBG (13C9.E5) Anti SHBG v2; SHBG #16
T3 sequence (VH, as listed by the source): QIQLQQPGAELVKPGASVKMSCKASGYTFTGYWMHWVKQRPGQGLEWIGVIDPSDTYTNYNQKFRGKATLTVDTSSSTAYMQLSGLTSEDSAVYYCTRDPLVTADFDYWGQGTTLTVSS
The description is as above.

Where a chain is given by its changes, count along the chain named.

B1: anti-IBP4 antibody 1H9.B6 (antibody, mouse IgG1, kappa, V domains shown)
VH: EVQLQQSGPELVKPGASVKISCKTSGYTFTDYYMNWVKQSHGKSLEWIGDINPNNGGAGYNQKFKGKATLTVDKSSSTAYMELRSLTSEDSAVYYCARWGWDRYFDYWGQGTTLTVSS
VL: DIVMTQSQKFMSTSVGDRVSVTCKASQNVGIDVAWYQQKPGQSPKALIYSASYRSSGVPDRFTGSGSGTDFTLTINNVQSEDLAEYFCQQYNSYPLAFGSGTKLEIKR
notes: Mouse hybridoma mAb raised against FL IBP4; also called IBP4-1H9.B6
The term Kd denotes the concentration at which binding is half-saturated. A higher Kd goes with a looser complex. As usually defined, the koff is the first-order rate constant of dissociation. A low value points to a long-lived complex. One may read the kon as the rate constant with which the complex forms. With B1, in assay [1], the “ave IBP4 AC-MS RR” value turned out to be 0.588. Besides, the “ave RR” value in [2] was found to be 0.479; in assay [3], 0.586; in assay [4], 0.62; in [5], 0.607; in assay [8] it was 0.602; in assay [9], 0.562. Also, binding in [6] was characterised by a dissociation constant (Kd) of 1.5 nM. In assay [6], the koff worked out at 0.0009 s⁻¹. The same molecule came in with a kon in assay [6] of 600000 M⁻¹ s⁻¹. Also, in assay [6], the t1/2 was found to be 12.8 min. In addition, the “percentage of the IBP4 RR at 25 relative to 400 coupling density” value in [7] is 82%. The “Response Ratio” value in assay [10] was determined as 0.588.

B2: anti-IBP4 antibody 5C11.A7 (antibody, mouse IgG1, kappa, V domains shown)
VH: QVQLQQSGAELVRPGASVTLSCKASGYTFTDYEMHWVRQTPVHGLEWIGAIDTETGGPAYNQKFKGKAILTADKSSSTAYMELRSLTSEDSAVYFCTRARGSRSVYYFDNWGQGTTLTVSS
VL: B1 VL with I31T, D32N, Q42H, A46V, S55H, N76G, E85D, N92D, S93T, A97T
notes: Mouse hybridoma mAb raised against FL IBP4; also called IBP4-5C11.A7
Regarding B2, the “ave IBP4 AC-MS RR” value in [1] stood at 0.548. Besides, the “ave RR” value in assay [2] was 0.47; in assay [3] it was 0.595; in assay [4], 0.619; in assay [5], 0.609; in assay [8] it was 0.651; in assay [9] it was 0.567. Also, binding in assay [6] was put at a Kd of 1.6 nM. Moreover, the koff in assay [6] worked out at 0.00074 s⁻¹. In assay [6], this molecule registered a kon of 450000 M⁻¹ s⁻¹. Besides, the t1/2 in assay [6] came out at 15.6 min. For the same molecule, the “percentage of the IBP4 RR at 25 relative to 400 coupling density” value in [7] came to 79%. In assay [10], the “Response Ratio” value was 0.548.

B3: anti-IBP4 antibody 7G11.H4 (antibody, mouse IgG1, kappa, V domains shown)
VH: B2 VH
VL: DIVMTQSQKFMSTSVGDRVSVTCKASQNVDTNIAWYQQKPGHSPKALIYSASYRYSGVPDRFTGSGSGTDFTLTIGNVQSEDLADYFCQQYDTYPLTFGSGTKLEIKR
notes: Mouse hybridoma mAb raised against FL IBP4; also called IBP4-7G11.H4
For the molecule B3, in assay [1], the “ave IBP4 AC-MS RR” value is 0.525. The “ave RR” value was determined as 0.404 in assay [2]; 0.538 in [3]; 0.547 in assay [4]; 0.56 in assay [5]; 0.598 in [8]; 0.492 in assay [9]. This molecule also had a Kd in assay [6] of 2.8 nM. In [6], this molecule returned a koff of 0.00102 s⁻¹. Further, the kon in [6] stood at 370000 M⁻¹ s⁻¹. The molecule further displayed a t1/2 in assay [6] of 11.3 min. For the same molecule, the “percentage of the IBP4 RR at 25 relative to 400 coupling density” value in [7] is 75%. For the same molecule, the “Response Ratio” value in assay [10] amounted to 0.525.

B4: 1 (peptide)
peptide: LRPVLPTQSAHDPP
notes: SHBG peptide of pool 1+2+3; also called peptide 1; Individual Peptide 1
With B4, in the assay with C4 Pos Control #4, the “% Unblocked Signal at 0.07 uMolar” value was determined as 93.3%, the “% Unblocked Signal at 0.27 uMolar” value worked out at 77.1% and the “% Unblocked Signal at 1.08 uMolar” value worked out at 66.3%. Besides, in [11], the “% Unblocked Signal at 0.07 uMolar” value came to 95.8%, the “% Unblocked Signal at 0.27 uMolar” value came out at 83% and the “% Unblocked Signal at 1.08 uMolar” value was found to be 53.2%. Also, in [12], the “% Unblocked Signal at 0.07 uMolar” value is 93.4%, the “% Unblocked Signal at 0.27 uMolar” value turned out to be 89.6% and the “% Unblocked Signal at 1.08 uMolar” value amounted to 86.8%.

B5: anti-IBP4 antibody 5B3.G9 (antibody, mouse IgG1, kappa)
heavy: EVQLQQSGPELVKPGASAKISCKASGYTFTDYYMNWVKQSHGKSLEWIGDINPNNGGSAYNQKFKGKATLTVDKSSSTAYMELRSLTSEDSAVYYCARWDGGFDYWGQGTTLTVSSAKTTPPSVYPLAPGSAAQTNSMVTLGCLVKGYFPEPVTVTWNSGSLSSGVHTFPAVLQSDLYTLSSSVTVPSSTWPSQTVTCNVAHPASSTKVDKKIVPRDCGCKPCICTVPEVSSVFIFPPKPKDVLTITLTPKVTCVVVDISKDDPEVQFSWFVDDVEVHTAQTKPREEQINSTFRSVSELPIMHQDWLNGKEFKCRVNSAAFPAPIEKTISKTKGRPKAPQVYTIPPPKEQMAKDKVSLTCMITNFFPEDITVEWQWNGQPAENYKNTQPIMDTDGSYFVYSKLNVQKSNWEAGNTFTCSVLHEGLHNHHTEKSLSHSPGK
light: DIVMTQSQKFMSTSVRDRVSVTCKASQNVGTNVAWYQQKPGQSPKALIYSASYRYSGVPDRFTGSGSGTAFTLTISNVQSEDLAEYFCQQYNIYPLTFGAGTKLELKRADAAPTVSIFPPSSEQLTSGGASVVCFLNNFYPRDINVKWKIDGSERQNGVLNSWTDQDSKDSTYSMSSTLTLTKDEYERHNSYTCEATHKTSTSPIVKSFNRNECK
Take B5: the “ave IBP4 AC-MS RR” value in assay [1] stood at 0.482. For the same molecule, the “ave RR” value is 0.231 in assay [2]; 0.47 in assay [3]; 0.462 in assay [4]; 0.534 in [5]; 0.533 in assay [8]; 0.449 in [9]. The molecule also registered a Kd in assay [6] of 10 nM. Moreover, the koff in [6] was 0.0021 s⁻¹. Also, the on-rate (kon) in assay [6] was 200000 M⁻¹ s⁻¹. This molecule also gave a t1/2 in assay [6] of 5.5 min. For the same molecule, the “percentage of the IBP4 RR at 25 relative to 400 coupling density” value in assay [7] turned out to be 49%. The “Response Ratio” value in assay [10] turned out to be 0.482.
